Reference: patent US10829756B2, “Discovery of enzymes from the alpha-keto acid decarboxylase family” (Regents of the University of California, priority 2015, dated 2020)
Several values for one entry are separate records, joined by “and”; a condition that tells them apart may be missing. Equal values may be shown once.

B1: KIVD_VLV: KIVD triple mutant G402V/M538L/F542V, SEQ ID NO:3 (protein)
chain: MYTVGDYLLDRLHELGIEEIFGVPGDYNLQFLDQIISRKDMKWVGNANELNASYMADGYARTKKAAAFLTTFGVGELSAVNGLAGSYAENLPVVEIVGSPTSKVQNEGKFVHHTLADGDFKHFMKMHEPVTAARTLLTAENATVEIDRVLSALLKERKPVYINLPVDVAAAKAEKPSLPLKKENSTSNTSDQEILNKIQESLKNAKKPIVITGHEIISFGLEKTVSQFISKTKLPITTLNFGKSSVDEALPSFLGIYNGKLSEPNLKEFVESADFILMLGVKLTDSSTGAFTHHLNENKMISLNIDEGKIFNESIQNFDFESLISSLLDLSEIEYKGKYIDKKQEDFVPSNALLSQDRLWQAVENLTQSNETIVAEQGTSFFGASSIFLKPKSHFIGQPLWVSIGYTFPAALGSQIADKESRHLLFIGDGSLQLTVQELGLAIREKINPICFIINNDGYTVEREIHGPNQSYNDIPMWNYSKLPESFGATEERVVSKIVRTENEFVSVMKEAQADPNRMYWIELILAKEDAPKVLKKLGKLVAEQNKS
modifications: Synthetic protein KIVD_VLV
B2: GEO175 L376T_T240S: engineered mutant of GEO 175 containing two amino acid changes (L376T, T240S), SEQ ID NO:19 (protein)
chain: MRTVRESALDVLRARGMTTVFGNPGSTELPMLKQFPDDFRYVLGLQEAVVVGMADGFALASGTTGLVNLHTGPGTGNAMGAILNARANRTPMVVTAGQQVRAMLTMEALLTNPQSTLLPQPAVKWAYEPPRAADVAPALARAVQVAETPPQGPVFVSLPMDDFDVVLGEDEDRAAQRAAARTVTHAAAPSAEVVRRLAARLSGARSAVLVAGNDVDASGAWDAVVELAERTGLPVWSAPSEGRVAFPKSHPQYRGMLPPAIAPLSRCLEGHDLVLVIGAPVFCYYPYVPGAHLPENTELVHLTRDADEAARAPVGDAVVADLALTVRALLAELPAREAAAPAARTARAESTAEVDGVLTPLAAMTAIAQGAPANTTWVNESPSNLGQFHDATRIDTPGSFLFTAGGGLGFGLAAAVGAQLGAPDRPVVCVIGDGSTHYAVQALWTAAAYKVPVTFVVLSNQRYAILQWFAQVEGAQGAPGLDIPGLDIAAVATGYGVRAHRATGFGELSKLVRESALQQDGPVLIDVPVTTELPTL
modifications: Synthetic mutant of GEO175

Legend:
[1] = High-throughput pH-dependent colorimetric assay of KIVD mutant libraries in crude cell extracts; format: biochemical; settings: combinatorial KIVD mutants
Method: Partially degenerate oligonucleotides were ordered from Integrated DNA Technologies (San Diego, Calif.) and were used to generate libraries of kivd mutants (with N-terminal his tags) by PCR. Library DNA was purified, inserted into the PCR-amplified pQE9 vector by isothermal Gibson assembly,^31 and transformed into XL1-Blue cells. Individual ampicillin-resistant colonies were picked and grown in 96-well blocks at 37° C. overnight. The number of colonies picked was three times the theoretical library size to ensure approximately 95% probability of all possible mutation combinations occurring. Glycerol was added to 25% (w/v) and libraries were stored at −80° C. until enzyme activity and specificity were assayed. KIVD mutant libraries were screened using a pH-monitored enzyme assay (method explained below) to measure the rate of H^+ consumption resulting from the decarboxylation of 2-ketoacids.
KIVD mutant libraries were grown overnight in culture blocks, diluted 1:100 into fresh media (Luria Broth), grown at 37° C. for 3 hours to OD600 ˜0.6, induced with 0.1 mM IPTG (GoldBio, Saint Louis, Mo.), and grown for 2 additional hours at 37° C. Cells from the well blocks were transferred to 96-well assay plates (Costar, Corning, N.Y.) and cell density was measured at 600 nm. […] Absorbance was measured at 615 nm in a spectrophotometer (TEK Powerwave XS, BioTek, Winooski, Vt.). […]

[2] = test system: synthetic recursive+1 pathway; experiment: In vivo alcohol production of the synthetic recursive+1 pathway (fermentation, GC-FID); format: cell-based, E. coli
Method: The measured specificity and activity for each enzyme was used to select two candidates for further characterization of their ability to modulate alcohol production in vivo. The two enzymes with the highest activity and specificity (FIG. 4), KIVD_VLV and GEO 175, were tested for their ability to reprogram the synthetic recursive+1 pathway to produce long-chain alcohol products in vivo. The alcohol-producing biochemical pathway was adapted from a previous study used to synthesize alcohols of various lengths.^3,4 Starting from glucose, the aforementioned+1 pathway, involving LeuABCD, recursively elongates 2-ketoacids, starting with 2-ketobutyrate, into longer chained 2-ketoacids. These 2-ketoacids are then converted to aldehydes by ketoacid decarboxylases (native KIVD, KIVD_VLV, and GEO 175) and subsequently to alcohols by an alcohol dehydrogenase. Carbon flux through this alcohol synthesizing biochemical pathway is enhanced by overexpressing thrABC, ilvA, LeuABCD, and ADH6 on inducible plasmids transformed into E. coli.^3 The effects of overexpression were furthermore supported and maintained by knocking out the threonine exporter enzyme RhtA and the primary DNA recombination degradation enzyme RecA. The enzyme AdhE was also knocked out, which helps raise long chain alcohol production by eliminating a competing pathway where acetyl-CoA is directly converted to ethanol.^19
Genes were removed from the ATCC 98082 ΔrhtA strain genome using P1 transduction from the Keio collection as previously.^32 The aldehyde-alcohol dehydrogenase gene (adhE) was knocked out to eliminate ethanol production from acetyl-coA. In all strains, recA was knocked out to prevent recombination between the genome and plasmids, thereby stabilizing the transformants. Primers used to target recA for knockout were designed based on the Keio collection (Genobase, ecoli.aist-nara.ac.jp) and ordered from Integrated DNA Technologies.
For n-alcohol production, strains of ST128 were transformed with pZS_thrO, pZAlac_ilvABSleuA, and pZE_LeuA*BCDK*A6 containing various kivd mutations. Fermentation conditions were adapted from those in previous works,^3,4 with the following changes: 20 mL of medium was used, with 100 μg/mL ampicillin, […] kanamycin, and 100 μg/mL spectinomycin added. Cells were grown to an optical density at 600 nm of ˜0.6, followed by induction with 0.1 mM isopropyl-b-D-thiogalactoside (IPTG). After fermentation, cells were centrifuged for 15 minutes at 4000×g and 4° C. The supernatant was split into two fractions for analysis, 5 mL for short chain alcohols (ethanol, 1-propanol, and 1-butanol), and 15 mL for long chain alcohols (1-pentanol, 1-hexanol, 1-heptanol, and 1-octanol). Long chain alcohols were extracted from the 15 mL fraction by 3 mL n-hexane prior to analysis. GC-FID analysis was performed as previously described.^4

[3] = In vitro steady-state kinetics of purified 2-ketoacid decarboxylases (ADH/NADH-coupled), C5 substrate; format: biochemical; settings: relative to GEO 175
Method: (§1) For the native KIVD and KIVD_VLV mutant, 2 ml overnight cultures of XL1B cells were transformed with pQE9 containing N-terminal his-tagged KIVD enzymes and grown in Terrific Broth (BP biomedical, Cat#3046-042) with 50 μg/mL of carbenicillin. (Fisher scientific, Cat# BP2648-5) For the GEOs, 2 ml overnight cultures of BLR cells were transformed with pet29b+ plasmid containing N-terminal his-tagged GEOs, and grown in Terrific Broth with 50 μg/mL of kanamycin. (Fisher scientific, Cat# BP906-5) These cultures were diluted 1:1000 in 500 mL of Terrific Broth with 1 mM MgSO4, 1% glucose, and 50ug/mL of corresponding antibiotics, then grown at 37° C. for 24 hours. […] Protein concentrations were determined using a Synergy H1 spectrophotometer (Biotek) by measuring absorbance at 280 nm using their calculated extinction coefficients with ExPASy ProtParam Tool.^33 All other buffers and salts were purchased from Fisher Scientific unless otherwise specified.
(§2) The kcat and KM values of selective KIVD mutants were measured for the substrates: C3, C5, isoC5, and C8. […] Activity was measured at 0.005 mM to 10 mM substrates. […] Absorbance readings were taken every 1-minute at OD340 at 21° C. for 60 minutes using the Synergy H1. Kinetic parameters (kcat and KM) were determined by fitting initial velocity versus substrate concentration data to the Michaelis-Menten equation.

[4] = In vitro steady-state kinetics of purified 2-ketoacid decarboxylases (ADH/NADH-coupled), C8 substrate; format: biochemical; settings: relative to GEO 175
Method: as §1, §2

[5] = forty hours, microaerobic, defined media

Molecule	specificity for C8 and activity in colorimetric screening [1]	drop of overall alcohol production from that obtained with KIVD [2] [fold]	heptanol share of alcohol production [2] [%]	hexanol share of alcohol production [2] [%]	major alcohol product [2]	pentanol share of alcohol production [2] [%]	1-Ethanol production [2, 5]	1-Heptanol production [2, 5]	1-Hexanol production [2, 5]	1-Octanol production [2, 5]	1-Pentanol production [2, 5]	1-Propanol production [2, 5]	long chain (≥C5) alcohols produced ([2]; sum of long chain alcohols) [mg/L]	effect on shorter chain substrates [3]	effect on catalytic efficiency on C8 [4]
B1	highest specificity and activity	~10	37	47	Hexanol (C6)	16	no ethanol or propanol production is observed	269 mg/L and 269 ± 23 mg/L	341 mg/L and 341 ± 63 mg/L	not observed	118 mg/L and 118 ± 29 mg/L	no ethanol or propanol production is observed	728		
B2														negligible effect	decrease catalytic efficiency on C8
